Key:
[1] = biological target: T1, EGFR expressed on A431 cells (human, UniProt P00533 25-1210); assay: cell-based or functional assay
[2] = biological target: T1, EGFR expressed on A431 cells; assay: EGFR cell receptor binding assay: inhibition of biotinylated EGF binding to A431 cells; IgG-like format
VEGF-165 = biological target: T2, VEGF-165 (human, UniProt P15692-4 27-191); assay: VEGF receptor binding assay (RBA), IgG-like format; receptor (VEGFR1 or VEGFR2) not given
T2 construct: The assay text gives no species; also called vascular endothelial growth factor
T2 sequence (P15692 other isoform, or with tags, fused parts or gaps limits assumed): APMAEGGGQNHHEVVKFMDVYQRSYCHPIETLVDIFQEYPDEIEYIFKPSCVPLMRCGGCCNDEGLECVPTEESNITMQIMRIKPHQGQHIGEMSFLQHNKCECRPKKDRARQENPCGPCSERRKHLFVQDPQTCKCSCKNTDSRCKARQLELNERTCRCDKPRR

[3] = biological target: T1, EGFR expressed on A431 cells; assay: EGFR binding assay: inhibition of biotinylated EGF binding to A431 cells; lowest value obtained
Protocol: All reagents were prepared in PBS/1% BSA. The plate was incubated for 30 minutes at room temperature.

Kinase Assay IC50 (nM), average [1] [nM]	EC50 [2] [nM]	IC50 (VEGF-165) [nM]	IC50 [3] [nM]	Kinase Assay IC50 (nM), highest value [1] [nM]	Kinase Assay IC50 (nM), lowest value [1] [nM]	Binder
8.69	–	–	0.746 to 1.47	–	–	DOM16-39-109 (other) VL: DIQMTQSPTSLSASVGDRVTITCRASQWIGNLLDWYQQKPGEAPKLLIYYASFLQSGVPSRFSGGGFGTDFTLTISSLQPEDFATYYCQQANPAPLTFGQGTKVEIKR
20.5	–	–	1.47 to 4.21	–	–	DOM16-39-107 (other) VL: DIQMTQSPSSLSASVGDRVTITCRASQWIGILVDWYQQKPGEAPKLLIYYASFLQSGVPSRFSGSGSGTDFTLTISSLQPEDFATYYCQQANPAPLTFGQGTKVEIKR
–	17	0.2	–	–	–	IgG-like format No. 30 (heavy chain V region DOM15-26-501 VH; light chain V region DOM16-39-502 VK) (bispecific antibody, V domains shown, IgG-like format; also called IgG 30; not shown: human IgG1 heavy chain constant region; human kappa light chain constant region (CK)) VH: EVQLLESGGGLVQPGGSLRLSCAASGFTFKAYPIMWVRQAPGKGLEWVSEISPSGSYTYYADSVKGRFTISRDNSKNTLYLQMNSLRAEDTAVYYCAKDPRKFDYWGQGTLVTVSS VL: DIQMTQSPTSLSASVGDRVTITCRASQWIGNLLDWYQQKPGKAPKLLIYYASFLQSGVPSRFSGGGFGTDFTLTISSLQPEDFATYYCQQANPAPLTFGQGTKVEIKR
42.4	–	–	1.08 to 6.89	–	–	DOM16-39-115 (other) VL: DIQMTQSPSSLSASVGDRVTITCRASQWIGILLDWYQQKPGEAPKLLIYYASFLQSGVPSRFSGSGYGTDFTLTISSLQPEDFATYYCQQANPAPLTFGQGTKVEIKR

More lines, now with the values behind:

Binder	Kinase Assay IC50 (nM), average [1] [nM]	EC50 [2] [nM]	IC50 (VEGF-165) [nM]	IC50 [3] [nM]	Kinase Assay IC50 (nM), highest value [1] [nM]	Kinase Assay IC50 (nM), lowest value [1] [nM]
DOM16-39 (other) VL: DIQMTQSPSSLSASVGDRVTITCRASQWIGILLDWYQQKPGEAPKLLIYYASFLQSGVPSRFSGSGSGTDFTLTISSLQPEDFATYYCQQANPAPLTFGQGTKVEIKR	56.1	–	–	–	–	–
IgG-like format No. 28 (heavy chain V region DOM15-26-501 VH; light chain V region DOM16-39-500 VK) (bispecific antibody, V domains shown, IgG-like format; also called IgG 28; not shown: human IgG1 heavy chain constant region; human kappa light chain constant region (CK)) VH: EVQLLESGGGLVQPGGSLRLSCAASGFTFKAYPIMWVRQAPGKGLEWVSEISPSGSYTYYADSVKGRFTISRDNSKNTLYLQMNSLRAEDTAVYYCAKDPRKFDYWGQGTLVTVSS VL: DIQMTQSPSSLSASVGDRVTITCRASQWIGILVDWYQQKPGKAPKLLIYYASFLQSGVPSRFSGSGFGTDFTLTISSLHPEDFATYYCQQANPAPLTFGQGTKVEIKR	–	43	0.8	–	–	–
DOM16-39-87 (other) VL: DIQMTQSPSSLSASVGDRVTITCRASQWIGILVDWYQQKPGEAPKLLIYYASFLQSGVPSRFSGSGSGTDFTLTISSLQPEDFATYYCQQANPAPLRFGQGTKVEIKR	54.9	–	–	4.47 to 10.4	–	–
DOM16-39-100 (other) VL: DIQMTQSPSSLSASVGDRVTITCRASQWIGILVDWYQQKPGEAPKLLIYYASFLQSGVPSRFSGSGFGTDFTLTISSLHPEDFATYYCQQANPAPLTFGQGTKVEIKR	12.7	–	–	1.01 to 2.76	17.6	9.14

Source: US20100056439A1 (DOMANTIS, published 2010)
